Measurements from US20250215108A1 (OSE IMMUNOTHERAPEUTICS, published 2025).
Values joined by “and” are separate entries in the source; they are usually repeats but may differ in a detail not shown here. Identical values can stand only once.

Experiments:
[1] = molecular target: T1, SIRPa on human monocytes (human, UniProt P78324 31-504); assay: flow cytometry on human monocytes v1/v1 (Fc receptors blocked), PE anti-human Fc; readout MFI
T1 construct: also called human monocytes (v1/v1); SIRPa variant 1 on monocytes
Experimental: (§1) FIG. 3A, B, C, D, E, F, G. Binding analyses of anti-SIRPa antibodies on human monocytes (homozygote for SIRPa variant 1 (v1/v1)). [0478] […] Revelation was performed with a PE labeled mouse anti-human Fc mAb on Cantoll cytometer, values corresponding to percentage of stained monocytes. […] A corresponds to the percentage of monocytes v1/v1 stained. B corresponds to the mean of fluorescence intensity (MFI) of monocytes v1/v1. [0479] […] D represents the percentage of stained monocytes over antibody dose response. Statistical analysis were performed when it was possible. [0480] (E, F, G) SIRPa variants binding in the population by anti-h SIRPa antibodies: The capacity of different anti-hSIRPa antibodies to bind SIRPa variants in the 32 volunteers was measured by FACS with a PE-anti mouse IgG. […] F represents the homozygote variant 2 volunteers (n=8). G represents the heterozygote V1/V2 volunteers (n=8).
(§2) Method: To measure the binding of the anti-SIRPa antibodies on human monocytes, human Fc Receptor Binding Inhibitor (BD pharmingen; USA; reference 564220) was first added for 30 min at room-temperature to block human Fc receptors on human monocytes to reduce background. Then, an antibody was incubated for 30 min at 4° C., and washed before stained 30 min at 4° C. with PE-labelled anti-human IgG Fc (Biolegend; USA; reference 409303). For the mouse antibodies, a PE-labelled anti-mouseIgG (Jackson Immunoresearch; reference 715-116-151) was used. Samples were analyzed on BD LSRII or Canto II cytofluorometer.

[2] = molecular target: T1, SIRPa on human monocytes; assay: flow cytometry on human monocytes v1/v1 (Fc receptors blocked), PE anti-human Fc; readout % stained monocytes
Experimental: as §1, §2

[3] = molecular target: T1, SIRPa on human monocytes; assay: competition flow cytometry on human monocytes v1/v1: antibody titrated with biotinylated CD47-Fc (competitor; 10 µg/ml in the legend, 5 µg/ml in Example 5), PE-streptavidin; readout median fluorescence
Source text: (§3) FIG. 5A, B, C. […] [0485] […] A corresponds to the percentage of positive cells. B corresponds to the mean of fluorescence intensity. [0486]

[4] = molecular target: T2, CD47 on human blood cells (T cells, red blood cells, platelets) (human, UniProt Q08722 19-323); assay: flow cytometry on human red blood cells (left panel) and freshly isolated human platelets (right panel)
T2 construct: whole, on cells

[5] = molecular target: T1, SIRPa on human monocytes; assay: competition flow cytometry on human monocytes v1/v1: antibody titrated with biotinylated CD47-Fc (competitor; 10 µg/ml in the legend, 5 µg/ml in Example 5), PE-streptavidin; readout % positives
Source text: as §3

[6] = molecular target: T3, recombinant hSIRPa (Sino Biologicals, reference 10975-H08H) (human, UniProt P78324 31-370); assay: ELISA (ED50), immobilized hSIRPa, anti-mouse Fc detection
T3 construct: Used in the ELISA with the mouse antibodies
Experimental: For the ELISA assay with the mouse antibodies, a recombinant hSIRPa (Sino Biologicals, Beijing, China; reference 10975-H08H) was immobilized on plastic at 0.5 μg/ml in carbonate buffer (pH 9.2) and the purified antibody was added to measure binding.

Binder	EC50 [1]	EC50 [2]	IC50 [3]	binding result [4]	IC50 [5]	EC50 [6]
HFLA (humanized 18D5 variant) (antibody, human IgG4 S228P, kappa, V domains shown) VH: EVQLVQSGAEVKKPGESLRISCKASGYSFTSYWVHWVRQMPGKGLEWMGNIDPSDSDTHYSPSFQGHVTLSVDKSISTAYLQLSSLKASDTAMYYCVRGGTGTMAYFAYWGQGTLVTVSS VL: DVVMTQSPLSLPVTLGQPASISCRSSQSLVHSYGNTYLYWYQQRPGQSPRLLIYRVSNRFSGVPDRFSGSGSGTDFTLKISRVEAEDVGVYFCFQGTHVPYTFGGGTKVEIKR	0.328 µg/mL	0.174 µg/mL	–	–	–	–
HEFLB (humanized 18D5 variant) (antibody, human IgG4 S228P, kappa, V domains shown, also called anti-SIRPa HEFLB; HEFLB variant) VH: EVQLVQSGAEVKKPGESLRISCKASGYSFTSYWVHWVRQMPGKGLEWMGNIDPSDSDTHYSPSFQGHVTLSVDKSISTAYLQLSSLKASDTAMYYCVRGGTGTLAYFAYWGQGTLVTVSS VL: DVVMTQSPLSLPVTLGQPASISCRSSQSLVHSYGNTYLYWFQQRPGQSPRLLIYRVSNRFSGVPDRFSGSGSGTDFTLKISRVEAEDVGVYYCFQGTHVPYTFGGGTKVEIKR	0.449 µg/mL	0.208 µg/mL	–	no binding	–	–
HFLB (humanized 18D5 variant) (antibody, human IgG4 S228P, kappa, V domains shown) VH: EVQLVQSGAEVKKPGESLRISCKASGYSFTSYWVHWVRQMPGKGLEWMGNIDPSDSDTHYSPSFQGHVTLSVDKSISTAYLQLSSLKASDTAMYYCVRGGTGTMAYFAYWGQGTLVTVSS VL: DVVMTQSPLSLPVTLGQPASISCRSSQSLVHSYGNTYLYWFQQRPGQSPRLLIYRVSNRFSGVPDRFSGSGSGTDFTLKISRVEAEDVGVYYCFQGTHVPYTFGGGTKVEIKR	0.467 µg/mL	0.201 µg/mL	–	–	0.15 µg/mL	–
HALA (humanized 18D5 variant) (antibody, human IgG4 S228P, kappa, V domains shown) VH: EVQLVQSGAEVKKPGESLRISCKASGYTFTSYWVHWVRQMPGKGLEWIGNIDPSDSDTHYNQKFKDHVTLSVDKSISTAYLQLSSLKASDTAMYYCVRGGTGTMAWFAYWGQGTLVTVSS VL: DVVMTQSPLSLPVTLGQPASISCRSSQSLVHSYGNTYLYWYQQRPGQSPRLLIYRVSNRFSGVPDRFSGSGSGTDFTLKISRVEAEDVGVYFCFQGTHVPYTFGGGTKVEIKR	0.59 µg/mL	0.242 µg/mL	–	–	–	–
HEFLA (humanized 18D5 variant) (antibody, human IgG4 S228P, kappa, V domains shown) VH: EVQLVQSGAEVKKPGESLRISCKASGYSFTSYWVHWVRQMPGKGLEWMGNIDPSDSDTHYSPSFQGHVTLSVDKSISTAYLQLSSLKASDTAMYYCVRGGTGTLAYFAYWGQGTLVTVSS VL: DVVMTQSPLSLPVTLGQPASISCRSSQSLVHSYGNTYLYWYQQRPGQSPRLLIYRVSNRFSGVPDRFSGSGSGTDFTLKISRVEAEDVGVYFCFQGTHVPYTFGGGTKVEIKR	0.858 µg/mL	0.356 µg/mL	–	–	–	–

Results, then the binder that gave them:

EC50 [1]	EC50 [2]	IC50 [3]	binding result [4]	IC50 [5]	EC50 [6]	Binder
0.78 µg/mL	0.225 µg/mL	0.2 µg/mL	–	–	–	chimeric mouse/human 18D5 antibody (antibody, human IgG4 S228P, kappa, also called chimeric antibody; chimeric 18D5) heavy: not shown light: DVVMTQTPLSLPVSLGDQASISCRSSQSLVHSYGNTYLYWYLQKPGQSPKLLIYRVSNRFSGVPDRFSGSGSGTDFTLKISRVEAEDLGVYFCFQGTHVPYTFGSGTKLEIKRTVAAPSVFIFPPSDEQLKSGTASVVCLLNNFYPREAKVQWKVDNALQSGNSQESVTEQDSKDSTYSLSSTLTLSKADYEKHKVYACEVTHQGLSSPVTKSFNRGEC
–	–	–	–	–	0.06 nM and 0.009 µg/mL	mouse antibody 18D5 (antibody, mouse IgG2b, kappa, also called m18D5; m18D5 clone) heavy: QVQLQQPGAELVRPGSSVKLSCKASGYTFTSYWVHWVKQRPIQGLEWIGNIDPSDSDTHYNQKFKDKASLTVDKSSSTAYMQLSSLTFEDSAVYYCVRGGTGTMAWFAYWGQGTLVTVSAAKTTPPSVYPLAPGCGDTTGSSVTLGCLVKGYFPESVTVTWNSGSLSSSVHTFPALLQSGLYTMSSSVTVPSSTWPSQTVTCSVAHPASSTTVDKKLEPSGPISTINPCPPCKECHKCPAPNLEGGPSVFIFPPNIKDVLMISLTPKVTCVVVDVSEDDPDVQISWFVNNVEVHTAQTQTHREDYNSTIRVVSTLPIQHQDWMSGKEFKCKVNNKDLPSPIERTISKIKGLVRAPQVYILPPPAEQLSRKDVSLTCLVVGFNPGDISVEWTSNGHTEENYKDTAPVLDSDGSYFIYSKLNMKTSKWEKTDSFSCNVRHEGLKNYYLKKTISRSPGK light: DVVMTQTPLSLPVSLGDQASISCRSSQSLVHSYGNTYLYWYLQKPGQSPKLLIYRVSNRFSGVPDRFSGSGSGTDFTLKISRVEAEDLGVYFCFQGTHVPYTFGSGTKLEIKRADAAPTVSIFPPSSEQLTSGGASVVCFLNNFYPKDINVKWKIDGSERQNGVLNSWTDQDSKDSTYSMSSTLTLTKDEYERHNSYTCEATHKTSTSPIVKSFNRNEC
